# Assay results from patent US20030147847A1 (IMMUNEX, published 2003).
# T1: NKG2D/Dap10 on transfected 293E cells (UniProt P26718 1-216; Q9UBK5 19-93)
# T1 construct: whole, on cells; Co-expressed on 293 EBNA (293E) cells from the pDC409 vector; also called NKG2D+FLAG tagged Dap10
# T1 sequence 1: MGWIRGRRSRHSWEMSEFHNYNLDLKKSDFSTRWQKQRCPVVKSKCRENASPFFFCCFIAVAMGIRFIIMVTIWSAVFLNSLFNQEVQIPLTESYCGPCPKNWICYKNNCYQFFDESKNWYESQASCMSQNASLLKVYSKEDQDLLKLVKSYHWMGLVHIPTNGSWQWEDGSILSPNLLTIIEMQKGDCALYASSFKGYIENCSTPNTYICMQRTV
# T1 sequence 2: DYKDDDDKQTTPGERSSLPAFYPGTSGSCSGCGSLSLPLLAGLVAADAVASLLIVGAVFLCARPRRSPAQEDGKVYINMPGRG
# T2: NKG2D alone on transfected 293 EBNA cells (UniProt P26718 1-216, limits assumed)
# T2 construct: whole, on cells
# T2 sequence (looked up): T1 sequence 1
# T3: FLAG tagged Dap10 alone on transfected 293 EBNA cells (UniProt Q9UBK5 19-93)
# T3 construct: whole, on cells
# T3 sequence: T1 sequence 2
# B1: MICB/Fc (Fc fusion, UniProt Q29980 23-309, looked up)
# chain: AEPHSLRYNLMVLSQDGSVQSGFLAEGHLDGQPFLRYDRQKRRAKPQGQWAENVLGAKTWDTETEDLTENGQDLRRTLTHIKDQKGGLHSLQEIRVCEIHEDSSTRGSRHFYYDGELFLSQNLETQESTVPQSSRAQTLAMNVTNFWKEDAMKTKTHYRAMQADCLQKLQRYLKSGVAIRRTVPPMVNVTCSEVSEGNITVTCRASSFYPRNITLTWRQDGVSLSHNTQQWGDVLPDGNGTYQTWVATRIRQGEEQRFTCYMEHSGNHGTHPVPSGKALVLQSQRTD
# notes: also called MICB1/FC; not shown: Fc portion not described
# B2: human ULBP1-Fc fusion polypeptide (Fc fusion)
# chain: WSRAGWVDTHCLCYDFIITPKSRPEPQWCEVQGLVDERPFLHYDCVNHKAKAFASLGKKVNVTKTWEEQTETLRDVVDFLKGQLLDIQVENLIPIEPLTLQARMSCEHEAHGHGRGSWQFLFNGQKFLLFDSNNRKWTALHPGAKKMTEKWEKNRDVTMFFQKISLGDCKMWLEEFLMYWEQMLDPTKPPSLAPGTTQPRSCDKTHTCPPCPAPEAEGAPSVFLFPPKPKDTLMISRTPEVTCVVVDVSHEDPEVKFNWYVDGVEVHNAKTKPREEQYNSTYRVVSVLTVLHQDWLNGKEYKCKVSNKALPAPIEKTISKAKGQPREPQVYTLPPSRDELTKNQVSLTCLVKGFYPSDIAVEWESNGQPENNYKTTPPVLDSDGSFFLYSKLTVDKSRWQQGNVFSCSVMHEALHNHYTQKSLSLSPGK
# notes: ULBP-1 extracellular domain fused to the human IgG1 Fc mutein
# B3: MICA/Fc (Fc fusion, UniProt Q29983 24-307, looked up)
# chain: EPHSLRYNLTVLSWDGSVQSGFLTEVHLDGQPFLRCDRQKCRAKPQGQWAEDVLGNKTWDRETRDLTGNGKDLRMTLAHIKDQKEGLHSLQEIRVCEIHEDNSTRSSQHFYYDGELFLSQNLETKEWTMPQSSRAQTLAMNVRNFLKEDAMKTKTHYHAMHADCLQELRRYLKSGVVLRRTVPPMVNVTRSEASEGNITVTCRASGFYPWNITLSWRQDGVSLSHDTQQWGDVLPDGNGTYQTWVATRICQGEEQRFTCYMEHSGNHSTHPVPSGKVLVLQSHW
# notes: not shown: Fc portion not described
# B4: UL16-Fc fusion protein (Fc fusion)
# chain: VDLGSKSSNSTCRLNVTELASIHPGETWTLHGMCISICYYENVTEDEIIGVAFTWQHNESVVDLWLYQNDTVIRNFSDITTNILQDGLKMRTVPVTKLYTSRMVTNLTVGRYDCLRCENGTTKIIERLYVRLGSLYPRPPGSGLAKHPSVSADEELSA
# notes: extracellular domain; not shown: IgG1 Fc (mutein form), as described for OX40-Fc (Baum et al., EMBO J. 13:3992-4001, 1994); the mutein is described in p-
# B5: human ULBP2-Fc fusion polypeptide (Fc fusion)
# chain: WSRAGRADPHSLCYDITVIPKFRPGPRWCAVQGQVDEKTFLHYDCGNKTVTPVSPLGKKLNVTTAWKAQNPVLREVVDILTEQLRDIQLENYTPKEPLTLQARMSCEQKAEGHSSGSWQFSFDGQIFLLFDSEKRMWTTVHPGARKMKEKWENDKVVAMSFHYFSMGDCIGWLEDFLMGMDSTLEPSAGAPLAMSSGTTQLRRSCDKTHTCPPCPAPEAEGAPSVFLFPPKPKDTLMISRTPEVTCVVVDVSHEDPEVKFNWYVDGVEVHNAKTKPREEQYNSTYRVVSVLTVLHQDWLNGKEYKCKVSNKALPAPIEKTISKAKGQPREPQVYTLPPSRDELTKNQVSLTCLVKGFYPSDIAVEWESNGQPENNYKTTPPVLDSDGSFFLYSKLTVDKSRWQQGNVFSCSVMHEALHNHYTQKSLSLSPGK
# notes: ULBP-2 extracellular domain (residues 1-223) fused to the human IgG1 Fc mutein
# B6: Full length UL16 on transfected 293 EBNA cells (other)
# chain: VDLGSKSSNSTCRLNVTELASIHPGETWTLHGMCISICYYENVTEDEIIGVAFTWQHNESVVDLWLYQNDTVIRNFSDITTNILQDGLKMRTVPVTKLYTSRMVTNLTVGRYDCLRCENGTTKIIERLYVRLGSLYPRPPGSGLAKHPSVSADEELSATLARDIVLVSAITLFFFLLALRIPQRLCQRLRIRLPHRYQRLRTED
# notes: whole, on cells; also called UL16 FL
# What was measured:
# [1] = target: FLAG tagged Dap10 alone on transfected 293 EBNA cells (UniProt Q9UBK5); assay: flow cytometry, transfected 293 EBNA cells, 2 µg Fc protein + goat anti-human IgG PE
# [2] = target: Full length UL16 on transfected 293 EBNA cells (human cytomegalovirus) (UniProt P16757); assay: as above
# [3] = target: NKG2D alone on transfected 293 EBNA cells (UniProt P26718); assay: as above
# [4] = target: NKG2D/Dap10 on transfected 293E cells (UniProt P26718); assay: as above
# [5] = target: human ULBP1-Fc fusion polypeptide (human); assay: flow cytometry; ULBP1/FC preincubated with excess isotype control antibody, then added to 293E cells transfected with NKG2D/Dap10; goat anti-huIg PE
# [6] = target: human ULBP2-Fc fusion polypeptide (human); assay: flow cytometry; ULBP2/FC preincubated with excess isotype control antibody, then added to 293E cells transfected with NKG2D/Dap10; goat anti-huIg PE
# ULBP3/Fc (human) = ULBP3/Fc (human) (UniProt Q9BZM4); assay: flow cytometry; ULBP3/FC preincubated with excess isotype control antibody, then added to 293E cells transfected with NKG2D/Dap10; goat anti-huIg PE
# ULBP3/Fc (human), sequence (Q9BZM4 30-217): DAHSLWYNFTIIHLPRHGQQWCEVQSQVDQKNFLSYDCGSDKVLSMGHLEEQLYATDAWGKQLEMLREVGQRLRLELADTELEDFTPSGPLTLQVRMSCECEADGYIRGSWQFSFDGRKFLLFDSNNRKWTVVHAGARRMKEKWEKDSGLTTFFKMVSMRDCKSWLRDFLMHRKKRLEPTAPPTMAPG
# PERB11/Fc = assay: flow cytometry; PERB11/FC preincubated with excess isotype control antibody, then added to 293E cells transfected with NKG2D/Dap10; goat anti-huIg PE
# [7] = target: T1, NKG2D/Dap10 on transfected 293E cells; assay: flow cytometry, transfected 293 EBNA cells, 2 µg Fc protein + goat anti-human IgG PE
# [8] = target: T1, NKG2D/Dap10 on transfected 293E cells; assay: flow cytometry; NKG2D/Dap10-transfected 293E cells preincubated with 25 µg ULBP1/LZ (competitor)
# [9] = target: T1, NKG2D/Dap10 on transfected 293E cells; assay: flow cytometry; NKG2D/Dap10-transfected 293E cells preincubated with 25 µg hCD40L/LZ (control blocking protein)
# [10] = target: FLAG tagged Dap10 alone on transfected 293 EBNA cells (UniProt Q9UBK5); assay: flow cytometry, transfected 293 EBNA cells, M1 + sheep anti-mouse IgG PE
# [11] = target: Full length UL16 on transfected 293 EBNA cells (human cytomegalovirus) (UniProt P16757); assay: as above
# [12] = target: NKG2D alone on transfected 293 EBNA cells (UniProt P26718); assay: as above
# [13] = target: T1, NKG2D/Dap10 on transfected 293E cells; assay: as above
# [14] = target: T1, NKG2D/Dap10 on transfected 293E cells; assay: flow cytometry; NKG2D/Dap10-transfected 293E cells, M1 + sheep anti-mouse IgG PE (expression control)
# [15] = target: T1, NKG2D/Dap10 on transfected 293E cells; assay: as above; remark: listed apart in the source
# [16] = target: T2, NKG2D alone on transfected 293 EBNA …; assay: flow cytometry, transfected 293 EBNA cells, 2 µg Fc protein + goat anti-human IgG PE
# [17] = target: T3, FLAG tagged Dap10 alone on transfected …; assay: as above
# [18] = target: B6; assay: as above
# MICA/Fc = target: B3; assay: flow cytometry on 293 EBNA cells transfected with full length UL16
Molecule,Mean Fluorescence Intensity (MFI) [7] [MFI],Mean Fluorescence Intensity (MFI) [8] [MFI],Mean Fluorescence Intensity (MFI) [9] [MFI],Mean Fluorescence Intensity (MFI) [16] [MFI],Mean Fluorescence Intensity (MFI) [17] [MFI],Mean Fluorescence Intensity (MFI) [18] [MFI],further results
p7.5/Fc (Fc fusion),,,,,,,Mean Fluorescence Intensity (MFI) [1]: 12.1 MFI; Mean Fluorescence Intensity (MFI) [2]: 12.1 MFI; Mean Fluorescence Intensity (MFI) [3]: 9.99 MFI; Mean Fluorescence Intensity (MFI) [4]: 12.2 MFI
antibody M90 (isotype matched control antibody),,,,,,,MFI of staining protein on NKG2D/Dap10 cells after preincubation with blocking antibody [5]: 216 MFI; MFI of staining protein on NKG2D/Dap10 cells after preincubation with blocking antibody [6]: 192 MFI; MFI of staining protein on NKG2D/Dap10 cells after preincubation with blocking antibody (ULBP3/Fc (human)): 160 MFI; MFI of staining protein on NKG2D/Dap10 cells after preincubation with blocking antibody (PERB11/Fc): 167 MFI
PERB11/Fc (Fc fusion),109,11,280,,,,Mean Fluorescence Intensity (MFI) [1]: 12.7 MFI; Mean Fluorescence Intensity (MFI) [2]: 161 MFI; Mean Fluorescence Intensity (MFI) [3]: 10.2 MFI
M1 anti-FLAG antibody,,,,,,,Mean Fluorescence Intensity (MFI) [10]: 112 MFI; Mean Fluorescence Intensity (MFI) [11]: 11.3 MFI; Mean Fluorescence Intensity (MFI) [12]: 8.49 MFI; Mean Fluorescence Intensity (MFI) [13]: 130 MFI; Mean Fluorescence Intensity (MFI) [14]: 368 MFI; Mean Fluorescence Intensity (MFI) [15]: 261 MFI
B1,118,9,258,9.58,18.4,94.5,
B2,115,11,263,10.4,13.6,142,
B3,120,11,256,15.4,12,14,
B4,21.2,,,27.9,39.2,17.9,
B5,117,8,236,8.96,11.5,121,
B6,,,,,,,binding result (MICA/Fc): no binding (tested: 2 µg)
